Experimental data from paper PMC5339220.

What was measured:
[1] = target: CSP1 (UniProt P60243); experiment: EMSA; settings: EMSA: 1x LightShift binding buffer, 1 ug poly(dI-dC), 2.5% glycerol, 0.05% NP-40, 5 mM Mn2+, 5 mM Zn2+, 2-4 ug protein, 1 ng probe, 20 ul, 37 C, 30 min; pH not …
[2] = target: T1, ComED58E D58E (Streptococcus pneumoniae D39) (UniProt A0A0H2ZLR3); experiment: EMSA; settings: EMSA: 1x LightShift binding buffer, 1 ug poly(dI-dC), 2.5% glycerol, 0.05% NP-40, 5 mM Mn2+, 5 mM Zn2+, 2-4 ug protein, 1 ng probe, 20 ul, 37 C, 30 min; pH not …
T1 sequence: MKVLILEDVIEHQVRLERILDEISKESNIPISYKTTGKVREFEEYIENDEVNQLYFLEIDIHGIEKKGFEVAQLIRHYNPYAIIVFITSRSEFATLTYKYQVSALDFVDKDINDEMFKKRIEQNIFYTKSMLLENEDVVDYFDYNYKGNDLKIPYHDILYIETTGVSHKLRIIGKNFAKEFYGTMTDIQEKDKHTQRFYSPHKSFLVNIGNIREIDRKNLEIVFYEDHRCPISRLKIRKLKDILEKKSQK

Sequence: TACACATCTGCTTCTAAAATATTGTTAGAAAACGATTTGACTGTCCTGATCAATTTGTCATGTTCTTATTTCATTTTACTATATTTTTGGTTCGCGGGAAGTCTACTAAGATACTTAAAGATGCAGATAGTGAAAAAAGGTGTAGACATTACCGTAAAAAAGTGATATAATCGTAAGATGTTCAATGTATAGGTGTTAATCATGAGTAGACGTTTTAA (double strand) [C2 probe (cps promoter)]
- binding [1]: no binding
- binding [2]: binds
